The results in this text go back to publication PMC10175261.

Data set [1] addresses PriA;PriB C-term Arg44Ala LD (Escherichia coli;Escherichia coli, UniProt P17888;P07013 1-732;1-104+1-104, |R44A;internal_change). As to conditions: protein: recombinant;recombinant; tags: N-terminal His;; copies: 1;1; label: 5'-32P on 3L-98 (strand 2); fork 1:2 1:3; ssDNA lagging arm (strand 2).
In data set [2] the target is PriA;PriB N-term Arg44Ala LD (Escherichia coli;Escherichia coli, UniProt P17888;P07013 1-732;1-104+1-104, |R44A;internal_change). The settings on record: protein: recombinant;recombinant; tags: N-terminal His;; copies: 1;1; label: 5'-32P on 3L-98 (strand 2); fork 1:2 1:3; ssDNA lagging arm (strand 2).
For a further data set, the target named is PriA His483Ala (Escherichia coli, UniProt P17888 1-732, H483A). The settings on record: protein: recombinant; tags: N-terminal His; label: 5'-32P on 3L-98 (strand 2); fork 1:2 1:3; ssDNA lagging arm (strand 2).
In a further data set the target is PriA Thr482Ala (Escherichia coli, UniProt P17888 1-732, T482A). The settings on record: protein: recombinant; tags: N-terminal His; label: 5'-32P on 3L-98 (strand 2); fork 1:2 1:3; ssDNA lagging arm (strand 2).
The next data set addresses PriA Asp438Ala (Escherichia coli, UniProt P17888 1-732, D438A). As to conditions: protein: recombinant; tags: N-terminal His; label: 5'-32P on 3L-98 (strand 2); fork 1:2 1:3; ssDNA lagging arm (strand 2).
For another data set, the target named is PriA CRR triple variant (Escherichia coli, UniProt P17888 1-732, D438A;T482A;H483A). As to conditions: protein: recombinant; tags: N-terminal His; label: 5'-32P on 3L-98 (strand 2); fork 1:2 1:3; ssDNA lagging arm (strand 2).
The next data set has as its target PriA;PriB (Escherichia coli;Escherichia coli, UniProt P17888;P07013 1-732;1-104, |). The settings on record: protein: recombinant;recombinant; tags: N-terminal His;none; copies: 1;2; label: 5'-32P on 3L-98 (strand 2); fork 1:2 1:3; ssDNA lagging arm (strand 2).

B1: Fork 1 (structured_DNA)
DNA 1: GCAAGCCTTCTACAGGTCGACCGTCCATGGCGACTCGAGACCGCAATACGGATAAGGGCTGAGCACGCCGACGAACATTCACCACGCCAGACCACGTA
DNA 2: GACTATCTACGTCCGAGGCTCGCGCCGCAGACTCATTTAGCCCTTATCCGTATTGCGGTCTCGAGTCGCCATGGACGGTCGACCTGTAGAAGGCTTGC
DNA 3: TACGTGGTCTGGCGTGGTGAATGTTCGTCGGCGTGCTC
For the molecule B1, the binding result (in data set [1]; in data set [2]; in the data set with PriA;PriB) was “binds” in each case. Moreover, the binding signal was determined as 92.2 ± 3.7 % fork shifted with PriA His483Ala, 91.3 ± 6.5 % fork shifted with PriA Thr482Ala, 95 ± 1.9 % fork shifted in the data set with PriA Asp438Ala and 95.8 ± 3.1 % fork shifted with PriA CRR triple variant.
